This series concerns MS2 coat protein. Nature of the series: apparent KD of MS2 coat protein; designed switch direction (-1 OFF switch, 1 ON switch): 1; higher = weaker reporter binding. The method, boiled down:
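Transcription of designed RNA switches on Illumina chips was done by stalled E. coli RNA polymerase. SNAP-549-labelled MS2 coat protein was then titrated in doubling steps from 0.7 or 1.5 nM to 3 µM, with steps of 0.8–1.5 h at the lowest and 10–20 min at the highest concentration. The per-design median over clusters of curve-fitted normalised fluorescence is reported as apparent KD.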

Setting [1] is: Eterna round: R95, input ligand: FMN 200 uM.
[2] abbreviates: Eterna round: R95, input ligand: microRNA oligo, concentration not stated.
Setting [3] is: Eterna round: R95, input ligand: none.
Setting [4] is: input ligand: microRNA oligo, concentration not stated.

On to “UUUAGUUGCGGGCAGGAUAUGUAUUAAAAUACAUGAGGAUCACCCAUGUGCGGGUAUAACACCCGACAGAAGGGCCAAUCGCAAC [Laonerce - 6] (puzzle: Same State 2)”, for which the “apparent KD of MS2 coat protein” value under setting [1] was found to be 22.2 nM, the “apparent KD of MS2 coat protein” value under setting [2] worked out at 142 nM and the “apparent KD of MS2 coat protein” value under setting [3] was determined as 240 nM.
On to “ACUUAGUACAAUUUAGAUCUACAUGAGGAUCACCCAUGUACUGAGGAUAUCAGCUCGAAUAGAGCUGAGAAGGCAGAAGUACUU [SSNG3/8-A1] (Eterna round: R96, puzzle: Same State NG 3)”, for which the “apparent KD of MS2 coat protein” value under setting [4] worked out at 192 nM.
As to “AAACAUGAGCGAGGAUAUGCAGAGGAUCACCCUGUAGAAGGCGCAUGUAAAACAACAUGAGGAUCACCCAUGUCAUGUACAUGA (Eterna round: R96, puzzle: Same State NG 1)”, the “apparent KD of MS2 coat protein” value (input ligand: FMN 200 uM) is 19.4 nM, the “apparent KD of MS2 coat protein” value under setting [4] is 15.3 nM and the “apparent KD of MS2 coat protein” value (input ligand: none) worked out at 20.2 nM.
For the sequence “AUAAAACACAUGAGGAUCACCCAUGUGGCCGUAGUCGGCACACAGGAUAUCAAGCAACUAGAGCUUGAGAAGGGUGAGACAAAA [Raar] (Eterna round: R96, puzzle: Same State NG 3)”, the “apparent KD of MS2 coat protein” value reads like this: (input ligand: FMN 200 uM) 179 nM; under setting [4], 4.09 nM; (input ligand: none) 250 nM.
On to “ACAUGAGGAUCACCCAUGUAUUUAUAUGAAUCUUAAGUUACGUAGGAUAUCGUCUAUACUAUCAACGAGAAGGACGAACUCAAA [JR_SSNG3_Sub069] (Eterna round: R96, puzzle: Same State NG 3)”, for which the “apparent KD of MS2 coat protein” value runs as follows: (input ligand: FMN 200 uM) 9.51 nM; under setting [4], 15.3 nM; (input ligand: none) 17.4 nM.
On to “GGCUAUCGGCGUACCGAUAGCUGGUAUGUACAUGAGGAUCACCCAUGUCAUGUACAGGCUUUUUGCUCGUCUUAUUG [JL-shm-2.39 JL mod] (puzzle: Sensor for hsa-mir-208a)”, for which the “apparent KD of MS2 coat protein” value runs as follows: under setting [1], 134 nM; under setting [2], 30.3 nM; under setting [3], 149 nM.
As to “UGUUAACAUGAGGAUCACCCAUGUCAAAUGAAUCGAGGAUAUGGAAAGUAAUAAGAUGAACUAGAAGGCGAAGUUG [Altered State 1-18 - Jieux - Same State 1] (puzzle: Same State 1)”, the “apparent KD of MS2 coat protein” value runs as follows: under setting [1], 46.2 nM; under setting [2], 87.9 nM; under setting [3], 86.7 nM.
With “CACGUCUCGGUAGGAUAUGAGGUGCCAUAGGGAACAGCCUAUGGACAUGAGGAUCACCCAUGUCCUCAGAAGGGCCGGACGUGA [Leonis] (Eterna round: R96, puzzle: Same State NG 2)”, the “apparent KD of MS2 coat protein” value is, setting by setting: (input ligand: FMN 200 uM) 18.1 nM; under setting [4], 48.9 nM; (input ligand: none) 68.2 nM.
For the sequence “GACAUUCUAUCUCAGGAUAUCAUGUCAAAGACAUGAGGAUCACCCAUGUACCAGGAAACUGGUUAUGAGAAGGGAGAUAGAAUGA [Mat - Same State 2 - Mod - D46] (puzzle: Same State 2)”, the “apparent KD of MS2 coat protein” value is, setting by setting: under setting [1], 103 nM; under setting [2], 1880 nM; under setting [3], 176 nM.
The matching figures for “GUAAUACAUGAGGAUCACCCAUGUCAAUGUAGUCGAGGAUAUGGGUAGCUAUGAGGCGUACUAGAAGGCGAGGAGU [JL-ss1-3.18 ViennaUCT mod] (puzzle: Same State 1)”: 258 nM, 72.1 nM and 85.8 nM.
For the sequence “AUUUUUAAUGCAGGAUAUGAUUAACAUGAGGAUCACCCAUGUGGUGUUGUGAGUAAGGAGAGUGAUCAGAAGGGCAUUUUUUUU [JMF's solution 30] (Eterna round: R96, puzzle: Same State NG 2)”, the “apparent KD of MS2 coat protein” value reads like this: (input ligand: FMN 200 uM) 726 nM; under setting [4], 354 nM; (input ligand: none) 456 nM.
For “AACAAUCUAUCUGAGGAUAUCAUGAAUAAAACAUGAGGAUCACCCAUGUGCAGGAAAACUGCAUAUGAGAAGGCAGAUAGAUUGU [Mat - Same State 2 - Mod - D11] (puzzle: Same State 2)”, the “apparent KD of MS2 coat protein” value by setting is: under setting [1], 69.3 nM; under setting [2], 2610 nM; under setting [3], 2140 nM.
On the same counts, the results for “CUAUCUACAGGUGUCAUUGCUCGUCUUAUACAUGAGGAUCACCCAUGUUAUAGCCCGGUGCUUGCGCUGGGCUGAUU [JL ViennaUCT Tearor mod 5] (puzzle: Sensor for hsa-mir-208a)” are 114 nM, 15.5 nM and 99.9 nM.
For “AUGAAUUUGCGAGGAUAUCGUUUGUUGAAGUUACGAGAAGGCGCUCACUUUACAUGAGGAUCACCCAUGUUUAUGAUAUAUGAU [JR_SSNG1_Sub074] (Eterna round: R96, puzzle: Same State NG 1)”, the “apparent KD of MS2 coat protein” value reads like this: (input ligand: FMN 200 uM) 24.1 nM; under setting [4], 30 nM; (input ligand: none) 37.1 nM.
For “GCUAGAAUUAAAGCCAACAUGAGGAUCACCCAUGUAUGUUGGUAGGAUAUCGUUUGCAAAGCAAACGAGAAGGGCUAAUCUAGC [Mat - Same State NG 3 - JL Mod - D64] (Eterna round: R96, puzzle: Same State NG 3)”, the “apparent KD of MS2 coat protein” value (input ligand: FMN 200 uM) turned out to be 87 nM, the “apparent KD of MS2 coat protein” value under setting [4] turned out to be 48.2 nM and the “apparent KD of MS2 coat protein” value (input ligand: none) turned out to be 80.2 nM.
“UCUUGGUUUUUGCUCGUUUUUUGUGUUGAACAUGAGGAUCACCCAUGUAUUGUACGGUCCAAUUUGGUAAUGGUCCG [JMF 29] (puzzle: Sensor for hsa-mir-208a)”: the “apparent KD of MS2 coat protein” value under setting [1] was 25.2 nM, the “apparent KD of MS2 coat protein” value under setting [2] was determined as 15.6 nM and the “apparent KD of MS2 coat protein” value under setting [3] amounted to 26.8 nM.
Consider “UUAACAUGAGGAUCACCCAUGUAUGCGUUGCUUGCAUUUUGACAGGAUAUUGUUUAUCCAUAUAGCAAGAAGGGUCGUUAGUCU [JR_SSNG3_Sub010] (Eterna round: R96, puzzle: Same State NG 3)”, for which the “apparent KD of MS2 coat protein” value reads like this: (input ligand: FMN 200 uM) 80.9 nM; under setting [4], 63.1 nM; (input ligand: none) 79.1 nM.
As for “GAGAAGAGGGACAAGGAUAUGUCAGGAGAGACAUGAGGAUCACCCAUGUAGAGGAAGAGAGAGAGACAGAAGGUGUCGAGAGCGA [JR_SS2_Sub015] (puzzle: Same State 2)”, the “apparent KD of MS2 coat protein” value is, setting by setting: under setting [1], 118 nM; under setting [2], 66 nM; under setting [3], 130 nM.
In the case of “GCGGAAUGGUGUGACAUGAGGAUCACCCAUGUAACCUCAUGUAAGGAUAUCGGGAAGAAGAAAACCGAGAAGGUACGGUGACGC [AK SSNG3-V2-28] (Eterna round: R96, puzzle: Same State NG 3)”, the “apparent KD of MS2 coat protein” value (input ligand: FMN 200 uM) was determined as 197 nM, the “apparent KD of MS2 coat protein” value under setting [4] stood at 145 nM and the “apparent KD of MS2 coat protein” value (input ligand: none) was found to be 165 nM.
In the case of “UGGUAACAUGAGGAUCACCCAUGUCAAAUGAAUCGAGGAUAUGGGAAUUAAUAAUAUAAACUAGAAGGCGAAUUUG [Altered State 1-6 - Jieux - Same State 1] (puzzle: Same State 1)”, the “apparent KD of MS2 coat protein” value by setting is: under setting [1], 85.6 nM; under setting [2], 123 nM; under setting [3], 52.7 nM.
Consider “GUAGCAUGCAGGCAGGAUAUUCAUAUUAAAACAUGAGGAUCACCCAUGUAGGCCGAAAGGCCUUGGGAGAAGGGCCACAUGCUAC [Xeonanis - 18] (Eterna round: R96, puzzle: Same State 2)”, for which the “apparent KD of MS2 coat protein” value by setting is: (input ligand: FMN 200 uM) 36.8 nM; under setting [4], 429 nM; (input ligand: none) 704 nM.
“UUUGCAUGACGAGGAUAUCAUUUAUUUCUUGAUUGAGAAGGCGUUUUUUUUAUUACCUAACAUGAGGAUCACCCAUGUGACAGU [JR_SSNG1_Sub045] (Eterna round: R96, puzzle: Same State NG 1)”: the “apparent KD of MS2 coat protein” value by setting is: (input ligand: FMN 200 uM) 14.8 nM; under setting [4], 19.6 nM; (input ligand: none) 18.4 nM.
For “UGUAAACAUGAGGAUCACCCAUGUAAUAUAAUGGGAGGAUAUCUGAAUUAAUUAAAUUAAGGAGAAGGCCUAAUGG [Mat - Same State 1 - Mod of Eli - D48] (puzzle: Same State 1)”, the “apparent KD of MS2 coat protein” value runs as follows: under setting [1], 79.8 nM; under setting [2], 995 nM; under setting [3], 563 nM.
On the same counts, the results for “ACGUCGAUAUCACAGGAUAUACUCACAUCUACAUGAGGAUCACCCAUGUAGCGGUAUUCCGGUGCGUAGAAGGGUGAUGGACGAC [Same State 2 - Mod of Artece v.4] (puzzle: Same State 2)” are 14.4 nM, 12.4 nM and 12.2 nM.
On to “UGUUGUAUUACAGGAUAUCUAUAAUUUUUAUUUAGAGAAGGGUAUUCACAUGAGGAUCACCCAUGUAUAUACGAGGAAGUUGUG [JMF's solution 10] (Eterna round: R96, puzzle: Same State NG 1)”, for which, under setting [4], the “apparent KD of MS2 coat protein” value was 31.1 nM.
For “GCUCGAUGUGCUGUUUACAUGAGGAUCACCCAUGUAGAUGCGGAGGAUAUCUACGUGCUUUAUGUAGAGAAGGCCGUAUCGAGC [SameState NG3 #82] (Eterna round: R96, puzzle: Same State NG 3)”, the “apparent KD of MS2 coat protein” value by setting is: (input ligand: FMN 200 uM) 15 nM; under setting [4], 25.4 nM; (input ligand: none) 35.1 nM.
Regarding “AAACGGUCGCUGCGGCAACCACAUGAGGAUCACCCAUGUACAUAGGAUAUCGCCUAAAAUACUGGCGAGAAGGGUGAUUAAAGA [Onbiriza] (Eterna round: R96, puzzle: Same State NG 3)”, the “apparent KD of MS2 coat protein” value is, setting by setting: (input ligand: FMN 200 uM) 28.7 nM; under setting [4], 17.9 nM; (input ligand: none) 73.7 nM.

Source of the values: the supplement of paper PMC9170038.
